These results are taken from PMC11260360 (Nature structural & molecular biology, 2023).

Positions count from the first letter of the chain named. In names and notes the source's numbering stands.

This test addresses DENND10 (recombinant, pull-down) (human, UniProt Q8TCE6 1-357). Put plainly: pull-down.

Chain of DENND10 (recombinant, pull-down) (Q8TCE6 whole entry): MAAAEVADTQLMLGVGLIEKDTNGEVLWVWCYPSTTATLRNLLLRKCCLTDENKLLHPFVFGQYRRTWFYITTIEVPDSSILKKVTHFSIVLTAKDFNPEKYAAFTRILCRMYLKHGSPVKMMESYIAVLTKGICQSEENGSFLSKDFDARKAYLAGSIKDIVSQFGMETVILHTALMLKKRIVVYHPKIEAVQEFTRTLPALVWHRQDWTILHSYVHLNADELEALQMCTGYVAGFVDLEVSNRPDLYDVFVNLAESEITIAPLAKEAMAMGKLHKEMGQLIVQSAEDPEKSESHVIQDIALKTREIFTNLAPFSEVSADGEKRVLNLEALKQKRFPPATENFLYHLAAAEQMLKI

B1: MBP-tagged CCDC22-CCDC93 DBD (complex, human)
chain 1: GAGAKTGAPKGSRFTHSEKFTFHLEPQAQATQVSDVPATSRRPEQVTWAAQEQELESLREQLEGVNRSIEEVEADMKTLGVSFVQAESECRHSKLSTAEREQALRLKSRAVELLPDGTANLAKLQLVVENSAQRVIHLAGQWEKHRVPLLAEYRHLRKLQDCRELES
chain 2: SPEKLGTSQLHRRKVISLNKQIAQKTKHLEELRASHTSLQARYNEAKKTLTELKTYSEKLDKEQAALEKIESKADPSILQNLRALVAMNENLKSQEQEFKAHCREEMTRLQQEIENLKAERAPRGDEKT
As to B1, the binding result is “binds”.

B2: MBP-tagged CCDC22-CCDC93 DBD, CCDC93 E410R (complex, human)
chain 1: B1 chain 1
chain 2: B1 chain 2 with E106R
Regarding B2, the binding result is reported as “binds”.
